Measured values taken from the Human Domainome abundance scans (Beltran et al. 2025).

B1: Storkhead-box protein 2, residues 64 to 141; numbered along this chain, Q9P2F5 (parent)
chain: SPISQSQFIPLGEILCLAISAMNSARKPVTQEALMEHLTTCFPGVPTPSQEILRHTLNTLVRERKIYPTPDGYFIVTP

Variants of: B1
Assay: abundance fitness (aPCA) (normalised: wild type 0, dead -1); higher = more abundant; growth selection in yeast, the domain comes from the species named
Settings: Homo sapiens

Abundance fitness: each site, then its substitutions
V45: R -0.06, S -0.113, T -0.031, K -0.222, W 0.028, Q -0.007, Y 0.051, I 0.026, L -0.05, P -0.168, H 0.078, N -0.209, M -0.109
L53: S -0.586, A -0.124, M 0.019, F -0.113, K -0.943, D -0.747, Y -0.108, C -0.113, H -0.756, V -0.003, T 0.026, Q -0.491, G -0.856, E -0.929, W -0.141, R -0.913, P -1.11, I -0.007
R54: F -0.082, N 0.012, K -0.027, C -0.193, D -0.365, P -0.401, H -0.367, L -0.011, M 0, A 0.015, G 0.057, I -0.037, E 0.013
S49: T -0.16, E -0.24, C -0.068, K -0.139, G -0.068, A -0.109, P -0.27, I -0.835, L -0.684, H -0.225, Q -0.265, V -0.575, R -0.21, M -0.68, N -0.173, F -0.887
Q50: P -0.055, S -0.034, R -0.036, M 0.036, F 0.013, V -0.131, N -0.08, Y 0.174, W -0.082, I 0.047, A -0.011, G 0.053, C -0.076, D 0.118, T -0.08, K -0.014, H -0.022
I52: N -0.46, C -0.038, V 0.035, S -0.134, F 0.011, P -0.654, D -0.043, G -0.083, E -0.042, Y 0.171, H 0.011, R -0.086, L -0.05, K -0.029, W -0.019, A -0.085, T 0.025, M 0.056
E51: R -0.231, W -0.145, P 0.009, V -0.145, H 0.027, T -0.085, D 0.028, Q -0.099, C -0.104, N -0.301, Y -0.161, G -0.1, S -0.039, A -0.085, M -0.203, F -0.207, K 0.003
P48: T -0.357, R -0.415, A -0.186, N -0.5, Q -0.156, S -0.418, E -0.447, G -0.311, I -0.016, F -0.141, H -0.354, W -0.28, C -0.085, L -0.259, D -0.398, K -0.44, Y -0.201, M -0.099
T47: P -0.191, L -0.073, A -0.082, I 0.11, H -0.166, S -0.092, C -0.115, F -0.273, D -0.277, K 0.021, G -0.197, R -0.018, V 0.071, Q -0.067, Y -0.132, E -0.199, N -0.151, W -0.397
P46: I 0.015, Y -0.402, E -0.067, C -0.078, F -0.408, K -0.243, S -0.15, H -0.14, R -0.157, M -0.107, T -0.03, G -0.133, W -0.174, V -0.086, Q -0.187, L -0.128, N -0.124, A -0.079, D -0.081
